In patent publication US6770458:

Columns and labels:
Experiment in all cases: cell-based or functional assay
[1] = target: p53 fused to the GAL4 DNA-binding domain (pAS2) (UniProt P04386)
[2] = target: CDK2 fused to the GAL4 DNA-binding domain (pAS2) (UniProt P04386)
[3] = target: Smad7 (expression construct, tag not specified)

Sequence of p53 fused to the GAL4 DNA-binding domain (pAS2) (P04386 1-147): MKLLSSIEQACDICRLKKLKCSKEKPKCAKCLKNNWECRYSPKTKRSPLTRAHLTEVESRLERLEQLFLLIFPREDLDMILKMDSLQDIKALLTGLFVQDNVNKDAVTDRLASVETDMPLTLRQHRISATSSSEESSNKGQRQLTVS
Sequence of CDK2 fused to the GAL4 DNA-binding domain (pAS2) (P04386 1-147): as above

Substance | β-galactosidase Activity (relative scale) [1] | β-galactosidase Activity (relative scale) [2] | fold repression of (CAGA)9 MLP-Luc reporter activity in HepG2 cells [3]
FKBP12.6 in pACT (from UniProt Q9Z2I2 1-108) | 1.1 | – | –
STRAP (Serine-Threonine Kinase Receptors Associated Protein) in pACT (from UniProt Q9Z1Z2 1-350) | < 1 | 1.2 | –
STRAP (expression construct, tag not specified) (from UniProt Q9Z1Z2 1-350) | – | – | 105 fold
